Read-outs that look alike come from different tables or passages of the source.
Experiments:
Assay in all cases: Michaelis-Menten kinetics
[1] = substrate: Nc1ncnc2c1ncn2[C@@H]1O[C@H](COP(=O)(O)OP(=O)(O)OC[C@H]2O[C@H](Oc3ccc([N+](=O)[O-])cc3)[C@H](O)[C@@H]2O)[C@@H](O)[C@H]1O; type: biochemical, Homo sapiens; conditions: Mg2+ ([…] MgCl2 in assay buffer)
[2] = substrate: Nc1ncnc2c1ncn2[C@@H]1O[C@H](COP(=O)(O)OP(=O)(O)OC[C@H]2O[C@H](Oc3ccc4c(C(F)(F)F)cc(=O)oc4c3)[C@H](O)[C@@H]2O)[C@@H](O)[C@H]1O; type: biochemical, Homo sapiens
[3] = substrate: Nc1ncnc2c1ncn2[C@@H]1O[C@H](COP(=O)(O)OP(=O)(O)OC[C@H]2O[C@H](Oc3ccc([N+](=O)[O-])cc3)[C@H](O)[C@@H]2O)[C@@H](O)[C@H]1O; type: biochemical, Tetrahymena thermophila
[4] = substrate: Nc1ncnc2c1ncn2[C@@H]1O[C@H](COP(=O)(O)OP(=O)(O)OC[C@H]2O[C@H](Oc3ccc4c(C(F)(F)F)cc(=O)oc4c3)[C@H](O)[C@@H]2O)[C@@H](O)[C@H]1O; type: biochemical, Tetrahymena thermophila

B1: ARH3 (ADP-ribosyl hydrolase 3, ADPRHL2) (Homo sapiens) (protein)
chain: MAAAAMAAAAGGGAGAARSLSRFRGCLAGALLGDCVGSFYEAHDTVDLTSVLRHVQSLEPDPGTPGSERTEALYYTDDTAMARALVQSLLAKEAFDEVDMAHRFAQEYKKDPDRGYGAGVVTVFKKLLNPKCRDVFEPARAQFNGKGSYGNGGAMRVAGISLAYSSVQDVQKFARLSAQLTHASSLGYNGAILQALAVHLALQGESSSEHFLKQLLGHMEDLEGDAQSVLDARELGMEERPYSSRLKKIGELLDQASVTREEVVSELGNGIAAFESVPTAIYCFLRCMEPDPEIPSAFNSLQRTLIYSISLGGDTDTIATMAGAIAGAYYGMDQVPESWQQSCEGYEETDILAQSLHRVFQKS
- Km [1]: 3.2 ± 0.6 µM
- Vmax [1]: 1.7 µmol/min/mg
- Km ([2]; Mg2+ ([…] MgCl2 in assay buffer)): 6.3 ± 0.2 µM
- Vmax ([2]; Mg2+ ([…] MgCl2 in assay buffer)): 1.61 µmol/min/mg

B2: ttPARG (T. thermophila PARG) (Tetrahymena thermophila) (protein)
chain: MIEAEKQENKKIQDYQFPLPQKNSELWIIQKKTLQDLSSGKQKLDSFQSLESILEILRDSKNQNDEKYFNLKAVFEQLDKEEQTYFLEQFIPKICQLVLKIKKKQLKNQIPKESKIYEAAFSREEISYYVSCMFLCILKDQDRKIYKDFRLIYLKDLVQQINIRRQEKIKCFYEYLKQALDFSEKESKEVVIFQRINCGQLEDYENWVDKLKAIKLKNVQLTDDKLIEDFPGTLQVDFANCDIGGGILGNGLVQEEIRFCVCPEMLVSLLVFDQSMEANEVIIMKGIKQYSDYQGYSNSFRFVKMGNSKIQKQKRNNPQTILAIDALCFNSSDNQFSEVNVSRELNKSYMGFKQEDQLKTISTGKWGCGAFLGVFDLKFAIQWIASSRSNKKMIICTFQDEQTTKQIQQVFDLYKQKNASIFLKLVMDYPNSKYMEDYTLLEYLIELGKEKATSKNS
- Km [3]: 210 ± 10 µM
- Vmax [3]: 16.9 µmol/min/mg
- Km [4]: 210 ± 13 µM
- Vmax [4]: 28.6 µmol/min/mg

B3: PARG (poly(ADP-ribose) glycohydrolase) (Homo sapiens) (protein)
chain: MNAGPGCEPCTKRPRWGAATTSPAASDARSFPSRQRRVLDPKDAHVQFRVPPSSPACVPGRAGQHRGSATSLVFKQKTITSWMDTKGIKTAESESLDSKENNNTRIESMMSSVQKDNFYQHNVEKLENVSQLSLDKSPTEKSTQYLNQHQTAAMCKWQNEGKHTEQLLESEPQTVTLVPEQFSNANIDRSPQNDDHSDTDSEENRDNQQFLTTVKLANAKQTTEDEQAREAKSHQKCSKSCDPGEDCASCQQDEIDVVPESPLSDVGSEDVGTGPKNDNKLTRQESCLGNSPPFEKESEPESPMDVDNSKNSCQDSEADEETSPGFDEQEDGSSSQTANKPSRFQARDADIEFRKRYSTKGGEVRLHFQFEGGESRTGMNDLNAKLPGNISSLNVECRNSKQHGKKDSKITDHFMRLPKAEDRRKEQWETKHQRTERKIPKYVPPHLSPDKKWLGTPIEEMRRMPRCGIRLPLLRPSANHTVTIRVDLLRAGEVPKPFPTHYKDLWDNKHVKMPCSEQNLYPVEDENGERTAGSRWELIQTALLNKFTRPQNLKDAILKYNVAYSKKWDFTALIDFWDKVLEEAEAQHLYQSILPDMVKIALCLPNICTQPIPLLKQKMNHSITMSQEQIASLLANAFFCTFPRRNAKMKSEYSSYPDINFNRLFEGRSSRKPEKLKTLFCYFRRVTEKKPTGLVTFTRQSLEDFPEWERCEKPLTRLHVTYEGTIEENGQGMLQVDFANRFVGGGVTSAGLVQEEIRFLINPELIISRLFTEVLDHNECLIITGTEQYSEYTGYAETYRWSRSHEDGSERDDWQRRCTEIVAIDALHFRRYLDQFVPEKMRRELNKAYCGFLRPGVSSENLSAVATGNWGCGAFGGDARLKALIQILAAAAAERDVVYFTFGDSELMRDIYSMHIFLTERKLTVGDVYKLLLRYYNEECRNCSTPGPDIKLYPFIYHAVESCAETADHSGQRTGT
- Km [2]: 66.2 ± 15 µM
- Vmax [2]: 0.84 µmol/min/mg

Source: paper PMC6309520
